From PMC6044554 come the findings set out here.

Some results are limits rather than exact numbers.

This assay addresses InlPΔLRR5-GST fusion protein (Listeria monocytogenes). Kind of assay: pull-down; GST or GST fusion bait on Glutathione Sepharose 4B incubated overnight with MDCK cell lysate; beads boiled in SDS sample buffer; Western blot with anti-afadin antibody.

Consider afadin (MDCK cells) (natural protein), for which the fold decrease of afadin binding against InlP-GST is > 10 fold.
